From publication PMC4468133

Target: HIV-1 integrase (HIV-1)

Substance: lens-epithelium derived growth factor (LEDGF/p75) (from UniProt O75475 1-530) (natural protein)
- LEDGF/p75-dependent activation of in vitro integration into PN (polynucleosome) templates, IN-LEDGF/p75 preformed complex against IN alone (radiolabelled donor, average of four templates): 5 fold
